Laboratory results as given in US20150203577A1 (Chugai, published 2015).

T1: mouse FcγRIII (mouse, UniProt P08508 31-215)
T1 construct: Extracellular domain with C-terminal His tag; also called mFcγRIII; mFcgRIII
T1 chain: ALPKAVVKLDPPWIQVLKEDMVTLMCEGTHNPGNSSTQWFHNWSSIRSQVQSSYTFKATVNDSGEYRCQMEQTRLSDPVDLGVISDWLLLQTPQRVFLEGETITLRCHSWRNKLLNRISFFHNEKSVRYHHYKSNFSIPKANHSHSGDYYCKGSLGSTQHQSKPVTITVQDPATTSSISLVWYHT

T2: mouse FcγRII (mouse, UniProt P08101 30-210)
T2 construct: Extracellular domain with C-terminal His tag; also called mFcγRII; mFcgRII
T2 sequence: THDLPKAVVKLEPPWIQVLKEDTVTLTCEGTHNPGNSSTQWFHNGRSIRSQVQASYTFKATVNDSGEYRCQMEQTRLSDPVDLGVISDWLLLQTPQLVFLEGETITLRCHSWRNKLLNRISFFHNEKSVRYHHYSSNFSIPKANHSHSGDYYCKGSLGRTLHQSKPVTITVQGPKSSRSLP


Columns and labels:
mouse FcγRIII [1] = target: T1, mouse FcγRIII; assay: SPR (Biacore T200); KD of H237-mIgG1/MRAL-k0 / KD of variant
From the text: (§1) The antibody H chain variable region used was the variable region H237 (SEQ ID NO: 1) of the H chain VH3-IgG1 of the anti-IL-6 receptor antibody Fv4-IgG1 described in WO2009/125825. The antibody L chain commonly used was the L chain MRAL-k0 (SEQ ID NO: 2) of the anti-IL-6 receptor antibody tocilizumab. […] These variants were expressed and purified by the method of Reference Example 1 and evaluated for their binding to mFcγRII and mFcγRIII by the method of Reference Example 2 using Biacore T200.
(§2) Each altered antibody was analyzed for its interaction with each Fcγ receptor prepared above using Biacore T100 (GE Healthcare Japan Corp.), Biacore T200 (GE Healthcare Japan Corp.), Biacore A100, or Biacore 4000. The running buffer used was HBS-EP+ (GE Healthcare Japan Corp.). The assay temperature was set to 25° C. The sensor chips used were chips prepared by immobilizing Protein L (ACTIGEN or BioVision) onto Series S Sensor Chip CM5 (GE Healthcare Japan Corp.) or Series S Sensor Chip CM4 (GE Healthcare Japan Corp.) by the amine coupling method.

mouse FcγRII [2] = target: T2, mouse FcγRII; assay: as above
From the text: as §1, §2

mouse FcγRIII [3] = target: T1, mouse FcγRIII; assay: SPR (Biacore T200); KD of H237-MB630/MRAL-k0 / KD of variant
From the text: as §1, §2
(§3) In order to calculate the KD value of each altered antibody for FcγR, kinetic analysis was conducted according to the following method: first, the antibody of interest was captured onto any of these chips and allowed to interact with mFcγR diluted with a running buffer. For the obtained sensorgram, the assay results were globally fit into the 1:1 Langmuir binding model using Biacore Evaluation Software to calculate an association rate constant ka (L/mol/s) and a dissociation rate constant kd (1/s). From these values, the dissociation constant KD (mol/L) was calculated.

mouse FcγRII [4] = target: T2, mouse FcγRII; assay: as above
From the text: as §1, §2, §3

Binder	relative mFcγRIII-binding activity (mIgG1 = 1) (mouse FcγRIII [1]) [fold]	relative mFcγRII-binding activity (mIgG1 = 1) (mouse FcγRII [2]) [fold]	Relative mFcγRIII-binding activity (MB630 = 1) (mouse FcγRIII [3]) [fold]	Relative mFcγRII-binding activity (MB630 = 1) (mouse FcγRII [4]) [fold]
MB761 (antibody, mouse IgG1, kappa, CH name; VH H237 + CH, L chain MRAL-k0; copies: 2 + 2) heavy: QVQLQESGPGLVKPSETLSLTCAVSGHSISHDHAWSWVRQPPGEGLEWIGFISYSGITNYNPSLQGRVTISRDNSKNTLYLQMNSLRAEDTAVYYCARSLARTTAMDYWGEGTLVTVSSAKTTPPSVYPLAPGSAAQTNSMVTLGCLVKGYFPEPVTVTWNSGSLSSGVHTFPAVLQSDLYTLSSSVTVPSSTWPSETVTCNVAHPASSTKVDKKIVPRDCGCKPCICEPNEVELVFIFPPKPKDVLTITLTPKVTCVVVDISKDDPEVQFSWFVDDVEVHTAQTQPREEQFNMTFRSVSELPIMHQDWLNGKEFKCRVDSAAFPAPIERTISKTKGRPKAPQVYTIPPPKEQMAKDKVSLTCMITDFFPEDITVEWQWNGQPAENYKNTQPIMDTDGSYFVYSKLNVQKSNWEAGNTFTCSVLHEGLHNHHTEKSLSHSPGK light: not shown	0.18	13.4	0.92	0.81
MB765 (antibody, mouse IgG1, kappa, CH name; VH H237 + CH, L chain MRAL-k0; copies: 2 + 2) heavy: QVQLQESGPGLVKPSETLSLTCAVSGHSISHDHAWSWVRQPPGEGLEWIGFISYSGITNYNPSLQGRVTISRDNSKNTLYLQMNSLRAEDTAVYYCARSLARTTAMDYWGEGTLVTVSSAKTTPPSVYPLAPGSAAQTNSMVTLGCLVKGYFPEPVTVTWNSGSLSSGVHTFPAVLQSDLYTLSSSVTVPSSTWPSETVTCNVAHPASSTKVDKKIVPRDCGCKPCICEPNEVELVFIFPPKPKDVLTITLTPKVTCVVVDISKDDPEVQFSWFVDDVEVHTAQTQPREEQFNSTFRSVSELPIMHQDWLNGKEFKCRVLSAAFPAPIEKTISKTKGRPKAPQVYTIPPPKEQMAKDKVSLTCMITDFFPEDITVEWQWNGQPAENYKNTQPIMDTDGSYFVYSKLNVQKSNWEAGNTFTCSVLHEGLHNHHTEKSLSHSPGK light: not shown	0.11	5.3	0.64	0.49
MB762 (antibody, mouse IgG1, kappa, CH name; VH H237 + CH, L chain MRAL-k0; copies: 2 + 2) heavy: QVQLQESGPGLVKPSETLSLTCAVSGHSISHDHAWSWVRQPPGEGLEWIGFISYSGITNYNPSLQGRVTISRDNSKNTLYLQMNSLRAEDTAVYYCARSLARTTAMDYWGEGTLVTVSSAKTTPPSVYPLAPGSAAQTNSMVTLGCLVKGYFPEPVTVTWNSGSLSSGVHTFPAVLQSDLYTLSSSVTVPSSTWPSETVTCNVAHPASSTKVDKKIVPRDCGCKPCICEPNEVELVFIFPPKPKDVLTITLTPKVTCVVVDISKDDPEVQFSWFVDDVEVHTAQTQPREEQENSTFRSVSELPIMHQDWLNGKEFKCRVNSAAFPAPIEKTISKTKGRPKAPQVYTIPPPKEQMAKDKVSLTCMITDFFPEDITVEWQWNGQPAENYKNTQPIMDTDGSYFVYSKLNVQKSNWEAGNTFTCSVLHEGLHNHHTEKSLSHSPGK light: not shown	0.09	4.4	0.51	0.4
MB763 (antibody, mouse IgG1, kappa, CH name; VH H237 + CH, L chain MRAL-k0; copies: 2 + 2) heavy: QVQLQESGPGLVKPSETLSLTCAVSGHSISHDHAWSWVRQPPGEGLEWIGFISYSGITNYNPSLQGRVTISRDNSKNTLYLQMNSLRAEDTAVYYCARSLARTTAMDYWGEGTLVTVSSAKTTPPSVYPLAPGSAAQTNSMVTLGCLVKGYFPEPVTVTWNSGSLSSGVHTFPAVLQSDLYTLSSSVTVPSSTWPSETVTCNVAHPASSTKVDKKIVPRDCGCKPCICEPNEVELVFIFPPKPKDVLTITLTPKVTCVVVDISKDDPEVQFSWFVDDVEVHTAQTQPREEQNNSTFRSVSELPIMHQDWLNGKEFKCRVNSAAFPAPIEKTISKTKGRPKAPQVYTIPPPKEQMAKDKVSLTCMITDFFPEDITVEWQWNGQPAENYKNTQPIMDTDGSYFVYSKLNVQKSNWEAGNTFTCSVLHEGLHNHHTEKSLSHSPGK light: not shown	0.07	3.4	0.41	0.31
MB766 (antibody, mouse IgG1, kappa, CH name; VH H237 + CH, L chain MRAL-k0; copies: 2 + 2) heavy: QVQLQESGPGLVKPSETLSLTCAVSGHSISHDHAWSWVRQPPGEGLEWIGFISYSGITNYNPSLQGRVTISRDNSKNTLYLQMNSLRAEDTAVYYCARSLARTTAMDYWGEGTLVTVSSAKTTPPSVYPLAPGSAAQTNSMVTLGCLVKGYFPEPVTVTWNSGSLSSGVHTFPAVLQSDLYTLSSSVTVPSSTWPSETVTCNVAHPASSTKVDKKIVPRDCGCKPCICEPNEVELVFIFPPKPKDVLTITLTPKVTCVVVDISKDDPEVQFSWFVDDVEVHTAQTQPREEQFNSTFRSVSELPIMHQDWLNGKEFKCRVMSAAFPAPIEKTISKTKGRPKAPQVYTIPPPKEQMAKDKVSLTCMITDFFPEDITVEWQWNGQPAENYKNTQPIMDTDGSYFVYSKLNVQKSNWEAGNTFTCSVLHEGLHNHHTEKSLSHSPGK light: not shown	0.27	14	1.55	1.29
MB764 (antibody, mouse IgG1, kappa, CH name; VH H237 + CH, L chain MRAL-k0; copies: 2 + 2) heavy: QVQLQESGPGLVKPSETLSLTCAVSGHSISHDHAWSWVRQPPGEGLEWIGFISYSGITNYNPSLQGRVTISRDNSKNTLYLQMNSLRAEDTAVYYCARSLARTTAMDYWGEGTLVTVSSAKTTPPSVYPLAPGSAAQTNSMVTLGCLVKGYFPEPVTVTWNSGSLSSGVHTFPAVLQSDLYTLSSSVTVPSSTWPSETVTCNVAHPASSTKVDKKIVPRDCGCKPCICEPNEVELVFIFPPKPKDVLTITLTPKVTCVVVDISKDDPEVQFSWFVDDVEVHTAQTQPREEQTNSTFRSVSELPIMHQDWLNGKEFKCRVNSAAFPAPIEKTISKTKGRPKAPQVYTIPPPKEQMAKDKVSLTCMITDFFPEDITVEWQWNGQPAENYKNTQPIMDTDGSYFVYSKLNVQKSNWEAGNTFTCSVLHEGLHNHHTEKSLSHSPGK light: not shown	0.05	2.5	0.32	0.23
MB768 (antibody, mouse IgG1, kappa, CH name; VH H237 + CH, L chain MRAL-k0; copies: 2 + 2) heavy: QVQLQESGPGLVKPSETLSLTCAVSGHSISHDHAWSWVRQPPGEGLEWIGFISYSGITNYNPSLQGRVTISRDNSKNTLYLQMNSLRAEDTAVYYCARSLARTTAMDYWGEGTLVTVSSAKTTPPSVYPLAPGSAAQTNSMVTLGCLVKGYFPEPVTVTWNSGSLSSGVHTFPAVLQSDLYTLSSSVTVPSSTWPSETVTCNVAHPASSTKVDKKIVPRDCGCKPCICEPNEVELVFIFPPKPKDVLTITLTPKVTCVVVDISKDDPEVQFSWFVDDVEVHTAQTQPREEQFNSTFRSVSELPIMHQDWLNGKEFKCRVNSAAFPQPIEKTISKTKGRPKAPQVYTIPPPKEQMAKDKVSLTCMITDFFPEDITVEWQWNGQPAENYKNTQPIMDTDGSYFVYSKLNVQKSNWEAGNTFTCSVLHEGLHNHHTEKSLSHSPGK light: not shown	0.14	5.4	0.81	0.5
MB767 (antibody, mouse IgG1, kappa, CH name; VH H237 + CH, L chain MRAL-k0; copies: 2 + 2) heavy: QVQLQESGPGLVKPSETLSLTCAVSGHSISHDHAWSWVRQPPGEGLEWIGFISYSGITNYNPSLQGRVTISRDNSKNTLYLQMNSLRAEDTAVYYCARSLARTTAMDYWGEGTLVTVSSAKTTPPSVYPLAPGSAAQTNSMVTLGCLVKGYFPEPVTVTWNSGSLSSGVHTFPAVLQSDLYTLSSSVTVPSSTWPSETVTCNVAHPASSTKVDKKIVPRDCGCKPCICEPNEVELVFIFPPKPKDVLTITLTPKVTCVVVDISKDDPEVQFSWFVDDVEVHTAQTQPREEQFNSTFRSVSELPIMHQDWLNGKEFKCRVNSAAFPGPIEKTISKTKGRPKAPQVYTIPPPKEQMAKDKVSLTCMITDFFPEDITVEWQWNGQPAENYKNTQPIMDTDGSYFVYSKLNVQKSNWEAGNTFTCSVLHEGLHNHHTEKSLSHSPGK light: not shown	0.03	1.8	0.19	0.16
